Measured values published in patent publication US20240425618A1 (YOUCARE PHARMACEUTICAL GROUP, published 2024).

Target: polypeptide N52 simulating a target sequence (SARS-CoV-2, N-terminal acetyl (Ac); C-terminal amide (NH2))

B1: lipopeptide IPB24 (peptide)
peptide: SVVNIQKEIDRLNEVAKNLNESLIDLQELGKYEQYIKK
modifications: N-terminal acetyl (Ac); flexible linker PEG4 (from Fmoc-NH-PEG4-CH2CH2COOH) between the antiviral polypeptide sequence and the C-terminal K; cholesteryl hemisuccinate on the C-terminal K; C-terminal amide (NH2)
- Tm of the complex: 90 °C
